Assay results from PMC11898728.

Target: RhoA (human) (UniProt P61586)
UniProt P61586, sequence (P61586 whole entry): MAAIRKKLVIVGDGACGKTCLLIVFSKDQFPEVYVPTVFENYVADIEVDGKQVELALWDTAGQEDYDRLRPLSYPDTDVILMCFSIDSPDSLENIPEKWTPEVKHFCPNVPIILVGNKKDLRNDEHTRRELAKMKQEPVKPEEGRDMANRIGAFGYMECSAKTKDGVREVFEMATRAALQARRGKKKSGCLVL

VopX (amino acids 26-252), purified (domain or fragment)
average exchange rate of RhoA in the presence of VopX (in vitro RhoGEF exchange assay with N-MAR-GTP; 1.5 µM GTPase, 0.75 µM N-MAR-GTP, 0.5 µM VopX) (µmol N-MAR-GTP/μmol GTPase/s): 167
